Key:
[1] = target: 2C TCR (transgenic T cell receptor of CD8+ 2C T cells) (mouse); test: cell-based or functional assay
[2] = target: Pmel TCR (tumor-antigen gp-100 specific transgenic TCR of CD8+ Pmel T cells) (mouse); test: cell-based or functional assay

## 1B2 (an anti-clonotypic 2C TCR-specific mAb; mouse IgG1 isotype) (antibody)
[1]
  1B2/CD19 specific re-direction lysis of T2 cells, pre-targeted protocol, 51Cr release: 20 to 25%
  PKH26/67 double positive cell conjugates (2C/T2 conjugate formation): 19.5%
  re-directional specific lysis window of T2 cells (1B2/CD19 minus 1B2 beads), co-culture, E:T 1:1, 51Cr release: 30%
  re-directional specific lysis window of T2 cells (1B2/CD19 minus 1B2 beads), co-culture, E:T 2:1, 51Cr release: 20%
  re-directional specific lysis window of T2 cells (1B2/CD19 minus 1B2 beads), co-culture, E:T 5:1, 51Cr release: 10%
  specific lysis of T2 cells, pre-targeted protocol (FIG. 4B), 51Cr release: 20%

## GP 100 peptide loaded D^b-Ig dimer (from UniProt P61769 21-119) (peptide-MHC)
[2]
  lysis of T2 cells, pre-targeted assay, E:T 10:1, 51Cr release: < 40%
  re-directional specific lysis window (Db-gp100-Ig/CD19 against Db-gp100-Ig beads): 5%

## QL9 peptide loaded L^d-Ig dimer (from UniProt P61769 21-119) (peptide-MHC)
[1]
  lysis of T2 cells, pre-targeted assay, E:T 10:1, 51Cr release: < 20%
  re-directional lysis specific window (Ld-QL9-Ig/CD19 against Ld-QL9-Ig beads): < 15%

Source: patent publication US10463750
